B1: Hmgcs1 (protein, UniProt Q8JZK9 1-520, looked up)
Hydroxymethylglutaryl-CoA …: MPGSLPLNAEACWPKDVGIVALEIYFPSQYVDQAELEKYDGVDAGKYTIGLGQARMGFCTDREDINSLCLTVVQKLMERHSLSYDCIGRLEVGTETIIDKSKSVKSNLMQLFEESGNTDIEGIDTTNACYGGTAAVFNAVNWVESSSWDGRYALVVAGDIAIYATGNARPTGGVGAVALLIGPNAPLIFDRGLRGTHMQHAYDFYKPDMLSEYPVVDGKLSIQCYLSALDRCYSVYRKKIRAQWQKEGKDKDFTLNDFGFMIFHSPYCKLVQKSLARMFLNDFLNDQNRDKNSIYSGLEAFGDVKLEDTYFDRDVEKAFMKASSELFNQKTKASLLVSNQNGNMYTSSVYGSLASVLAQYSPQQLAGKRVGVFSYGSGLAATLYSLKVTQDATPGSALDKITASLCDLKSRLDSRTCVAPDVFAENMKLREDTHHLANYIPQCSIDSLFEGTWYLVRVDEKHRRTYARRPFTNDHSLDEGMGLVHSNTATEHIPSPAKKVPRLPATSAESESAVISNGEH
B2: Rab3gap2 (protein, UniProt Q8BMG7 1-1366, looked up)
Rab3 GTPase-activating …: MACSIVQFCSFQDLQSARDFLFPHLREETPGALKRDPSKTSSWEDDSWGAWEETEPREPEEEGNTSKTQKNSWLQECVLSLSPTSDLMVIAREQKAAFLVRKWKHGDKGKEEMQFAVGWSGSVSAEEGEYVTSALCIPLASQKRSSTGRPDWTCIVVGFTSGYVRFYTEGVLLLAQLLNEDKVLQLKCRTYEIPRHPGVTEQNEELSILYPAAIVTIDGFSLFQSLRACRNQVAKAAASGNENIQPPPLAYKKWGLQDIDTIIDHASVGIMTLSPFDQMKTASNIGGFNAAIKNSPPAMSQYITVGSSPFTGFFYALEGSTQPLLSHVALAVASKLTSALFSAASGWLGWKSKHEEDTVQKQKPKMEPATPLAVRFGLPDSRRHGESICLSPCNTLAAVTDDFGRVILLDVARGIAIRMWKGYRDAQVGWIQIVEDLHERVPEKGGFSPFGNTQGPSRVAQFLVIYAPRRGILEVWNTQQGPRVGAFNVGKHCRLLYPGYKIMGLNNVTSQSWQPQTYQICLVDPVSASVKAVNVPFHLALSDKKSERAKDLHLVKKLSALLRAKSPRPDSFETEIKELILDIKYPATKKQALESILASDRLSFSCLRNVTQTLMDTLKNQELESVDEGLLQFCASKLKLLHLYESVSQLNTLDFHSDTPFSDNDLAVLLRLDDKELLKLRALLEKYKQENTKATVRFSEDADRVLPVKTFLEYLEYEKDALSIRKIGEEECVALGSFFFWKCLHGKSSTEEMCHSLESAGLSPQQLLSLLLSVWLSKEKDILDKPQSVCCLHTMLSLLSKMKVAIDETWDSQSVSPWWQQMRMACIQSENSGAALLSAHVGHSVAAQMSSGATDKKFSQMELDADAEALTDSWEALSLDTEYWKLLLRQLEDCLILQTLLHSKLSPPAAKAPSLQSEPLPRLSVKKLLEGGKGGIADSVAKWIFKQDLSPELLKCANKERDVENPDEPREDLLHLAYEQFPCSLELDVLHAHCCWEYVVQWNKDPEEARFLVRSIEHLKQILNPHVQNGIALMMWNTFLVKRFSAATYLMDKVGKSPKDRLCRRDVGMSDTALTSFLGSCLELLQTSLEADISRDEVQVPVLDTEDAWLSVEGPISIVELALEQKPIHYPLVEHHSVLCSILYASMRFSLKSVKPLALFDSKGKNAFFKDLTSIQLLPSGEMDPNFISVRQQFLLKVVSAAVQAQHSKDKDPSAEAANTHWKDLNWPGLAVDLAHHLQVSDDVIRRHYVGELYSHGADLLGEEAIFQVQDKEVLASQLLVLTGQRLAHALFHTQTKEGMELLARLPPTLCTWLKAMNPQDLQNTGVPIAATAKLVHKVMELLPEKHGQYSLALHLIDAVEAMATL
B3: Spr (protein, UniProt P35270 1-261, looked up)
Sepiapterin reductase: MEGGLGRAVCLLTGASRGFGRTLAPLLASLLSPGSVLVLSARNDEALRQLEAELGAERSGLRVVRVPADLGAEAGLQQLLGALRELPRPKGLQRLLLINNAGSLGDVSKGFVDLSDSTQVNNYWALNLTSMLCLTSSVLKAFPDSPGLNRTVVNISSLCALQPFKGWALYCAGKAARDMLFQVLALEEPNVRVLNYAPGPLDTDMQQLARETSVDPDMRKGLQELKAKGKLVDCKVSAQKLLSLLEKDEFKSGAHVDFYDK
B4: Gmpr2 (protein, UniProt Q99L27 1-348, looked up)
GMP reductase 2: MPHIDNDVKLDFKDVLLRPKRSTLKSRSEVELTRSFSFRNSKQMYSGIPVIAANMDTVGTFEMARVLCKFSLFTAIHKHYSIHQWQEFASQNPDCLECLAASSGSGSADFEQLEQILEAIPQVKYICLDVANGYSEHFVEFVKDVRKRFPQHTIMAGNVVTGEMVEELILSGADIIKVGIGPGSVCTTRKKTGVGYPQLSAVMECADAAHGLKGHIISDGGCSCPGDVAKAFGAGADFVMLGGMLAGHSESGGELIERDGKKYKLFYGMSSEMAMKKYSGGVAEYRASEGKIVEVPFKGDVEHTIRDILGGIRSTCTYVGAAKLKELSRRTTFIRVTQQVNPIFSNSQ
B5: Copb2 (protein, UniProt O55029 1-905, looked up)
Coatomer subunit beta': MPLRLDIKRKLTARSDRVKSVDLHPTEPWMLASLYNGSVCVWNHETQTLVKTFEVCDLPVRAAKFVARKNWVVTGADDMQIRVFNYNTLERVHMFEAHSDYIRCIAVHPTQPFILTSSDDMLIKLWDWDKKWSCSQVFEGHTHYVMQIVINPKDNNQFASASLDRTIKVWQLGSSSPNFTLEGHEKGVNCIDYYSGGDKPYLISGADDRLVKIWDYQNKTCVQTLEGHAQNVSCASFHPELPIIITGSEDGTVRIWHSSTYRLESTLNYGMERVWCVASLRGSNNVALGYDEGSIIVKLGREEPAMSMDANGKIIWAKHSEVQQANLKAMGDTEIKDGERLPLAVKDMGSCEIYPQTIQHNPNGRFVVVCGDGEYIIYTAMALRNKSFGSAQEFAWAHDSSEYAIRESNSIVKIFKNFKEKKSFKPDFGAESIYGGFLLGVRSVNGLAFYDWENTELIRRIEIQPKHIFWSDSGELVCIATEESFFILKYLSEKVLAAQETHEGVTEDGIEDAFEVLGEIQEIVKTGLWVGDCFIYTSSVNRLNYYVGGEIVTIAHLDRTMYLLGYIPKDNRLYLGDKELNIVSYSLLVSVLEYQTAVMRRDFSMADKVLPTIPKEQRTRVAHFLEKQGFKQQALTVSTDPEHRFELALQLGELKIAYQLAVEAESEQKWKQLAELAISKCQFSLAQECLHHAQDYGGLLLLATASGNASMVNKLAEGAERDGKNNVAFMSYFLQGKLDACLELLIRTGRLPEAAFLARTYLPSQVSRVVKLWRENLSKVNQKAAESLADPTEYENLFPGLKEAFVVEEWVKETHADLWPAKQYPLVTPNEERNVMEEAKGFQPSRPTAQQEPDGKPASSPVIMASQTTHKEEKSLLELEVDLDNLELEDIDTTDINLDEDILDD
B6: Eif2b1 (protein, UniProt Q99LC8 1-305, looked up)
Translation initiation factor …: MEDGELIEYFKSQMKGDPKMASAVAAIQTLLEFLKRDKGETLQGLRANLTYAIKTLCGVDSSVAVSSGGELFLRFISLTSLEYSDYSKCKKIMIERGELFLRRISLSRNKIANLCHTFIKDGARILTHAYSRVVLRVLEEAVAAKKRFSVYITESQPDLSGKKMAKALSHLNVPVTVVLDAAVGYIMEKADLVIVGAEGVVENGGIINKIGTNQMAVCAKAQNKPFYVVAESFKFVRLFPLNQEDVPDKFKYKADTLKSVQTGQDLKEEHPWVDYTSPSLITLLFTDLGVLTPSAVSDELIKLYL
B7: Tars (protein, UniProt Q9D0R2 1-722, looked up)
Threonine--tRNA ligase 1, …: MSQEKASSPSGKMDGEKPVDASEEKRKEGGKKKSKDGGGDGGRAELNPWPEYINTRLDMYNKLKAEHDSILAEKAAKDSKPIKVTLPDGKQVDAESWKTTPYQIACGISQGLADNTVVAKVNKVVWDLDRPLETDCTLELLKFEDEEAQAVYWHSSAHIMGEAMERVYGGCLCYGPPIENGFYYDMYLEEGGVSSNDFSSLETLCKKIIKEKQTFERLEVKKETLLEMFKYNKFKCRILNEKVNTPTTTVYRCGPLIDLCRGPHVRHTGKIKTLKIHKNSSTYWEGKADMETLQRIYGISFPDPKLLKEWEKFQEEAKNRDHRKIGRDQELYFFHELSPGSCFFLPKGAYIYNTLMEFIRSEYRKRGFQEVVTPNIFNSRLWMTSGHWQHYSENMFSFEVEKEQFALKPMNCPGHCLMFDHRPRSWRELPLRLADFGVLHRNELSGALTGLTRVRRFQQDDAHIFCAMEQIEDEIKGCLDFLRTVYSVFGFSFKLNLSTRPEKFLGDIEIWNQAEKQLENSLNEFGEKWELNPGDGAFYGPKIDIQIKDAIGRYHQCATIQLDFQLPIRFNLTYVSHDGDDKKRPVIVHRAILGSVERMIAILTENYGGKWPFWLSPRQVMVVPVGPTCDEYAQKVRQQFHDAKFMADTDLDPGCTLNKKIRNAQLAQYNFILVVGEKEKASGTVNIRTRDNKVHGERTVEETVRRLQQLKQTRSKQAEEEF

test system: DYT-TOR1A MEF EVs; assay: Quantitative LC-MS/MS proteomics of EVs from drug-treated DYT-TOR1A MEF cultures (ritonavir, salubrinal); assay type: cell-based, mouse; design: key to RTV Corrective Direction / RTV Corrective Direction, Grwd1 / RTV Corrective Direction, Srrm2 / RTV Corrective Direction, Rbm17 / RTV Corrective Direction, Dcaf8 / RTV Corrective Direction, Edil3 / RTV Corrective Direction, Timp3 / RTV Corrective Direction, Heatr3 / RTV Corrective Direction, Brd4 / RTV Corrective Direction, P3h4 / RTV Corrective Direction, Pacsin3 / RTV Corrective Direction, Naa50 / RTV Corrective Direction, Lpar6 / RTV Corrective Direction, Ndrg1 / RTV Corrective Direction, Kntc1 / RTV Corrective Direction, Cdk11b / RTV Corrective Direction, Sumo1 / RTV Corrective Direction, Lsm4 / RTV Corrective Direction, Hmga2 / RTV Corrective Direction, Cstf1 / RTV Corrective Direction, Tes / RTV Corrective Direction, Sbno1 / RTV Corrective Direction, Unc119b / RTV Corrective Direction, Cfdp1 / RTV Corrective Direction, Sec61b: YES = protein abundance effect opposite to DYT/WT; settings: EV protein abundance, DYT + RTV (ritonavir) vs DYT, direction compared with DYT/WT

Molecule	RTV Corrective Direction
B1	YES
B2	YES
B3	YES
B4	YES
B5	YES
B6	YES
B7	YES

same assay, conditions: EV protein abundance, ritonavir (RTV)-treated DYT vs DYT

Molecule	DYT + RTV/DYT Cohen's d
B1	7.26
B2	4.70
B3	3.69
B4	5.10
B5	6.13
B6	5.03
B7	6.28

test system: WT MEF EVs; assay: Quantitative LC-MS/MS proteomics of EVs from ISRIB-treated WT MEF cultures; assay type: cell-based, mouse; design: key to ISRIB and DYT Parallel Direction / ISRIB and DYT Parallel Direction, Ctdsp1 / ISRIB and DYT Parallel Direction, Pcdh19 / ISRIB and DYT Parallel Direction, Tspan7 / ISRIB and DYT Parallel Direction, Myo1e / ISRIB and DYT Parallel Direction, Plpp3 / ISRIB and DYT Parallel Direction, Sh3bp4 / ISRIB and DYT Parallel Direction, Dnajc7 / ISRIB and DYT Parallel Direction, Drg1 / ISRIB and DYT Parallel Direction, Maea: YES = protein abundance effect similar to DYT/WT; settings: EV protein abundance, ISRIB-treated WT vs WT

Molecule	WT + ISRIB/WT Cohen's d
B1	−0.06
B2	−0.43
B3	−3.64
B4	−2.98
B5	−1.11
B6	−0.70
B7	−1.16

same assay, conditions: EV protein abundance, WT + ISRIB vs WT, direction compared with DYT/WT

Molecule	ISRIB and DYT Parallel Direction
B1	YES
B2	YES
B3	YES
B4	YES
B5	YES
B6	YES
B7	YES

Reference: US20260266848A1, “COMPOSITIONS AND METHODS FOR DIAGNOSING AND TREATING DYSTONIA” (Duke University, priority 2023, published 2026)
